Laboratory results as given in PMC7590123.

Key:
[1] = tested on: T1, PhaD-His6 (Pseudomonas putida KT2440), ORF:4b0e7042; assay: EMSA
T1 sequence: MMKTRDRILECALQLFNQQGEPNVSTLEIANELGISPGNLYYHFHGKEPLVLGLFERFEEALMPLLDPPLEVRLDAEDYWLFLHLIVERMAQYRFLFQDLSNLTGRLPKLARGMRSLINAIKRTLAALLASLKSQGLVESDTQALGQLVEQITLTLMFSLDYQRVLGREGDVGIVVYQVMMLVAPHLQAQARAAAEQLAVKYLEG

[2] = target: T18‐PhaC1 (bacterial two‐hybrid fusion, pUT18C‐phaC1) (P. putida); assay: two-hybrid

| Substance | binding [1] | β‐galactosidase activity [2] |
| --- | --- | --- |
| CCGTACACTTCCGAGGATGGGCGCACCTCAGGCAGCATCTGCCGCGGGATGCCCAGGATTTCCAGCAGCTTGTCGTCCCACTGCAGGCTGTGGATGTTGAACATCAGCGTGCGCGAGGCATTGGTGTAGTCGGTGACGTGAACCTTCCCACCCGTAAGCTTCCAGATCAGCCAGGTG (double strand) [glpK coding fragment] | no binding |  |
| CGCGGATCCATGCTGTGTACCTCATGCTCATGAGTGGTGGAAAACCGCCCATGGAGGCTGGGCTTGAGCATTAAGGTAGGGAAGAAAATTAGAAACCTCACCCTAAGGTCGTCGTTGTCGCATCTATATACCGCAAGCCCCGTTGACCACAGCGCTAGCGTCGCAGGCTTCACCTCACGGACATCGACGCCATGACTGCTGTAGCAAACCCACCCAGGCTGACGTTCAAGCAAAGCGTGGCAGGAATTCCGG (double strand) [PI promoter probe (phaI upstream, 230 bp)] | binds |  |
| T18‐PhaC1 (bacterial two‐hybrid fusion, pUT18C‐phaC1) (natural protein) |  | 1730 U/mg CDW |
